{"source": "paper PMC6428836", "about": "“A complex of novel protease inhibitor, ovostatin homolog, with its cognate proteases in immature mice uterine luminal fluid” (Scientific Reports, 2019)", "proteins": {"B1": {"name": "mouse ovostatin homolog (natural protein, mouse (endogenous in immature mouse ULF), UniProt Q3UU35 20-1456, looked up)", "chain": "AEPRYILWVSSVVQRFSSEKACLHLLNLNESVSLSVTLEYDGSSTTIFDQPVDEGNFYACADFKVSQMSSEQLAFVALLVQGNTLKISERRSVAIAAEENATFVQTDTPVHKPGDTVHFRVVTLNIWLKPVDDLYPLITVQDPQSNVIFQWINVTTFRNITQLSFQLTPEPILGDYTIVIKTQSGTTVMDHFTVNRDVLPKFEVELTAPETITIADSQFQMVTCAKYTYGQPVQGKAQIKVCRELFSPAHCESNENEICEQFTVQLKDGCASHIINTKVFQLDRSGLFMTLNVNEVVTESGTGVQMSKTHSVFITSVLGTVSFENMDPFYRRGITYFGTLKFSGPNNTPLVDKLLQLELDGKPVGNYTTDENGEARFSINTSEIFGAQISLKAVYVRPRSCHRSSWLSPEYLDAYFSASRFYSQTSSFTKIILEPKQLPCDQEKMFSVLYSLNPEAYKEASDVTFFYLVMVRGGISRSGQKQVRVQAWNGNFSFPISINADLAPSADLFVYTLHPSGEIVADNVRLQIEKCFKNKVSINFSRDKDLPGSNTSVHLQAAPDSFCALRAVDKSALLLNHGQEMTPESVYFTLPYIHQYGYFYNGLNLDDQQAEPCIPQKDLFYNGLYYTPTGNIWDGDLSNLLSNMGLKIFTNLHYRKPEVCSSQENQPLLRTFDHPNERIMMYGGGAPPSSAFHDSVDSISHAKVAIKETVRTNFPRTWIWNLVSVDSSGTANVSFLVPDTITQWEASAFCVNGNAGFGISPKVSLQISQPFFVEVTSPFSVVRSEQSDMVVTVFNYLTTCVEISVQLEASENYEASINTQRNTDSEVLQAGEQKTYVWTIIPKTLGKVNVTVVATSKQSRACPNDASKEQDVHWKDTVVKTMLVEAEGIEKEATQSFLICPKGTKASKQTLLELPSNVVEGSVRSFVTIVGDILGVAMQNLESLLQMPYGCGEQNIAQLASDVYILDYLKATDQLTEELKSKAQRLLSNGYQNHLSFKNYDGSYDVFCQSNQEGSTWLSALSFKTVEKMKEYIFIEETVPKQTLIWLVKKQKSNGCFRRDEKHVDTAQEGREGDQEDIALTAYVVGVFLEVGLNASFPALRNGLYCLEEAFSNGVTNGYTQAILAYVFALAGKEQQAKSLLSILDKSATKTNNMIYWERDEKPETDNSPSFIPSALSGETEKTCYVLLAVLSQDTQDLDYASKIVQWLAQRMNSHGGFSAMQDTTVCLLALTQYMKLTGSNPQNTITLSSEESEEVFYVNRNKRLLVQHSKVSKGHQQYTVDVEGDGCSFIQATLRYNVPLPKEASGFSLSVKTGKSNSSDEFQTKFELTVTLTYTGARESSVTVLVDVKMLSGFTPVVSSTEELKFNSQVTKTDIKNGHVLFYLENVPKEATSLTFSIEQTNHVANIQPAPVTVYSYEKGEYAFDSYNINSISDSQ", "notes": "ovostatin homolog, mouse, NP_001001179.2; predicted subunit 162 kDa; 360 kDa in non-reducing SDS-PAGE, about 700 kDa by gel filtration; In ULF most subunits are seen as an 88 kDa fragment under reducing conditions, only traces as the 162 kDa subunit; also called mOH; 360 kDa protein; source: endogenous, uterine luminal fluid (ULF) of DES-treated immature ICR mice; also partly purified from it …"}}, "target": "the molecule itself", "test": "SEC + other: non-reducing and reducing SDS-PAGE; about 700 kDa on Sephacryl S-400, about 360 kDa in non-reducing SDS-PAGE, traces of the 162 kDa subunit under reduction; tetramer of two disulfide-linked dimers"}
{"protein": "B1", "values": [{"measurement": "stoichiometry N", "result": 4}]}
